Data as given in the supplement of paper PMC10724198.
± gives the standard deviation of the averaged measurements.

Key:
Saccharomyces cerevisiae [1] = test: protein stability index of tFT-peptide fusion (C-terminal peptide) (PSI (0-1 scale)); higher = more stable (slower turnover)
Procedure: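 MPS profiling in S. cerevisiae of the tFT-X12 degron library: putative degron peptides plus stable controls, 12 aa, fused to the C-terminus of a sfGFP-mCherry timer. Cells are FACS-sorted into 8 mCherry/sfGFP bins and deep-sequenced. PSI runs from 0 (unstable) to 1 (stable). Backgrounds are wild type, das1Δ and doa10Δ at 30 °C, and wild type, das1Δ, cdc34-1 and cdc53-1 at 37 °C; 2-3 technical replicates each.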

Saccharomyces cerevisiae [2] = test: as above; details: genetic background: wild type; temperature: 30 C
[3] = genetic background: cdc34-1, temperature: 37 C
[4] = genetic background: cdc53-1, temperature: 37 C
[5] = genetic background: das1 deletion, temperature: 30 C
[6] = genetic background: das1 deletion, temperature: 37 C
[7] = genetic background: doa10 deletion, temperature: 30 C
[8] = genetic background: wild type, temperature: 30 C
[9] = genetic background: wild type, temperature: 37 C
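Note: PSI is a weighted mean of sequencing reads over stability bins, variants kept only with over 10 reads, mCherry proximal and sfGFP distal, peptide attached via GGGS linker.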

Sequence | protein stability index (Saccharomyces cerevisiae [1]; [3]) | protein stability index (Saccharomyces cerevisiae [1]; [4]) | protein stability index (Saccharomyces cerevisiae [1]; [5]) | protein stability index (Saccharomyces cerevisiae [1]; [6]) | protein stability index (Saccharomyces cerevisiae [1]; [7]) | protein stability index (Saccharomyces cerevisiae [1]; [8]) | protein stability index (Saccharomyces cerevisiae [1]; [9]) | protein stability index (Saccharomyces cerevisiae [2])
WKNIHGVFVFVM | 0.5472 ± 0.001 | 0.48 ± 0.014 | 0.389 ± 0.028 | 0.5696 ± 0.0012 | 0.25 ± 0.0047 | 0.284 ± 0.03 | 0.445 ± 0.0072 | 0.403 ± 0.012
WLCLGLVVGLFL | 0.44 ± 0.0069 | 0.488 ± 0.013 | 0.383 ± 0.029 | 0.459 ± 0.0058 | 0.339 ± 0.031 | 0.362 ± 0.017 | 0.47 ± 0.015 | 0.433 ± 0.041
WLCWVVWFPGLF | 0.395 ± 0.035 | 0.509 ± 0.028 | 0.369 ± 0.032 | 0.541 ± 0.012 | 0.1615 ± 0.00068 | 0.171 ± 0.012 | 0.297 ± 0.015 | 0.244 ± 0.035
WLFFVVLPVKAF | 0.0666 ± 0.0023 | 0.146 ± 0.02 | 0.178 ± 0.038 | 0.28 ± 0.016 | 0.104 ± 0.023 | 0.131 ± 0.026 | 0.154 ± 0.001 | 0.231 ± 0.0071
WLLSFLRFLVLR | 0.124 ± 0.015 | 0.0923 ± 0.027 | 0.322 ± 0.045 | 0.308 ± 0.02 | 0.8 ± 0.014 | 0.298 ± 0.026 | 0.32 ± 0.021 | 0.393 ± 0.029
WLVCAGWVVLSC | 0.153 ± 0.0026 | 0.2052 ± 0.00049 | 0.187 ± 0.023 | 0.2772 ± 0.0018 | 0.175 ± 0.0096 | 0.175 ± 0.026 | 0.222 ± 0.016 | 0.265 ± 0.033
WLYPVFKISYCV | 0.492 ± 0.0089 | 0.533 ± 0.024 | 0.357 ± 0.032 | 0.5131 ± 0.0049 | 0.282 ± 0.0049 | 0.33 ± 0.021 | 0.464 ± 0.017 | 0.381 ± 0.014
WNIVKHREDMLS | 0.685 ± 0.013 | 0.768 ± 0.015 | 0.638 ± 0.021 | 0.7359 ± 0.0046 | 0.63 ± 0.033 | 0.621 ± 0.027 | 0.7213 ± 0.0053 | 0.524 ± 0.14
WSLPPLLSPLYF | 0.717 ± 0.035 | 0.753 ± 0.019 | 0.67 ± 0.016 | 0.758 ± 0.02 | 0.676 ± 0.024 | 0.672 ± 0.012 | 0.7198 ± 0.0018 | 0.667 ± 0.34
WVCCFVWGCLIR | 0.2 ± 0.044 | 0.187 ± 0.0078 | 0.239 ± 0.021 | 0.353 ± 0.027 | 0.295 ± 0.0035 | 0.233 ± 0.019 | 0.303 ± 0.0074 | 0.281 ± 0.0081
WVLSRAAFVFFF | 0.587 ± 0.04 | 0.612 ± 0.0096 | 0.473 ± 0.019 | 0.606 ± 0.011 | 0.322 ± 0.0078 | 0.337 ± 0.022 | 0.5201 ± 0.0035 | 0.44 ± 0.018
WVVLVCGFVLLG | 0.246 ± 0.0069 | 0.369 ± 0.0077 | 0.243 ± 0.042 | 0.442 ± 0.0073 | 0.22 ± 0.0029 | 0.234 ± 0.019 | 0.361 ± 0.012 | 0.3175 ± 0.0027
YAFSTCTILIRF | 0.187 ± 0.0071 | 0.154 ± 0.044 | 0.211 ± 0.034 | 0.338 ± 0.015 | 0.38 ± 0.013 | 0.222 ± 0.018 | 0.3071 ± 0.0018 | 0.328 ± 0.048
YFTNCYRSILTF | 0.4366 ± 0.0011 | 0.487 ± 0.013 | 0.367 ± 0.047 | 0.51517 ± 0.00037 | 0.3196 ± 0.00079 | 0.355 ± 0.031 | 0.48177 ± 0.00025 | 0.4436 ± 0.00083
YGWILQLPCFVI | 0.246 ± 0.02 | 0.237 ± 0.00093 | 0.24 ± 0.031 | 0.37294 ± 0.00032 | 0.219 ± 0.0057 | 0.245 ± 0.023 | 0.315 ± 0.027 | 0.338 ± 0.0082
YHDKLRAIEKFF | 0.669 ± 0.03 | 0.725 ± 0.0075 | 0.635 ± 0.018 | 0.74 ± 0.03 | 0.199 ± 0.019 | 0.219 ± 0.04 | 0.49 ± 0.0052 | 0.331 ± 0.065
YLCFVVSCGVLR | 0.421 ± 0.0051 | 0.475 ± 0.026 | 0.327 ± 0.031 | 0.529 ± 0.0087 | 0.295 ± 0.018 | 0.313 ± 0.017 | 0.5035 ± 0.0016 | 0.383 ± 0.086
YLFFSCIFTFSC | 0.121 ± 0.025 | 0.198 ± 0.027 | 0.179 ± 0.024 | 0.331 ± 0.014 | 0.189 ± 0.011 | 0.211 ± 0.091 | 0.273 ± 0.018 | 0.316 ± 0.025
YLFLPGGEVSVH | 0.641 ± 0.033 | 0.653 ± 0.019 | 0.538 ± 0.032 | 0.666 ± 0.0033 | 0.5204 ± 0.0031 | 0.553 ± 0.019 | 0.6369 ± 0.00098 | 0.487 ± 0.083
YLGSPLSLMLVA | 0.48 ± 0.022 | 0.491 ± 0.026 | 0.379 ± 0.031 | 0.51 ± 0.006 | 0.332 ± 0.031 | 0.355 ± 0.022 | 0.481 ± 0.009 | 0.475 ± 0.032
